Data on one molecule can be found in patent US20060240015A1 (Kyowa Kirin, published 2006).

Assay [1] concerns the target T1, human insulin-like growth factor-II (human, UniProt P01344 25-91).
T1 construct: also called hIGF-II; IGF-II
In words: SPR (Biacore 2000). On the technique in general: In SPR one partner is held on a chip, and binding of the other changes the refractive index at the surface.

The target in assay [2] is T2, human insulin-like growth factor-I (human, UniProt P05019 49-118).
T2 construct: mature; In the ELISAs it was coated as a conjugate with methylated BSA; in Biacore it was amine-coupled to a CM-5 chip; also called hIGF-I; IGF-I
T2 sequence (P05019 49-118): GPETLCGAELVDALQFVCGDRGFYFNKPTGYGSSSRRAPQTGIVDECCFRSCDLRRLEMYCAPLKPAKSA
Description: SPR (Biacore 2000).

For assay [3], the target named is T1, human insulin-like growth factor-II. In words: SPR (Biacore 2000), hIGF-II amine-coupled on CM-5, antibody as analyte, 25 C. The method, then: (§1) In order to analyze the binding activity of the anti-hIGF rat monoclonal KM1468 to an antigen hIGF-I or hIGF-II, the binding affinities of the anti-hIGF rat monoclonal KM1468, a commercially available anti-hIGF-I antibody sm1.2 and a commercially available anti-hIGF-II antibody S1F2 to hIGF-I and hIGF-II were assayed in the following manner using the biosensor Biacore 2000 (manufactured by Biacore) utilizing surface plasmon resonance. For the diluting samples and as the reaction buffers in measurement, HBS-EP (10 mM HEPES, 150 mM NaCl, 3 mM EDTA, 0.005% Tween 20, pH 7.4) (manufactured by Biacore) was used.
(§2) Using an amine coupling (manufactured by Biacore), hIGF-I or hIGF-II were immobilized at 36.0 pg/mm² or 41.7 pg/mm², respectively, on sensor tip CM-5 (manufactured by Biacore). After 3 types of the antibodies which were diluted in 6 steps in 2-fold serial dilutions starting from 20 μg/ml as analytes, were added at a flow rate of 20 μl/minute for 2 minutes, the dissociation of the analytes was subsequently observed over 5 minutes. The reaction was carried out at 25° C. Based on the reaction curves at various concentrations, association constant Kass and dissociation constant Kdiss were calculated, to calculate the binding constant KA (M⁻¹) of these various antibodies. The binding constant KA is calculated by KA=Kass/Kdiss.

For assay [4], the target named is T2, human insulin-like growth factor-I. In words: SPR (Biacore 2000), hIGF-I amine-coupled on CM-5, antibody as analyte, 25 C. As for the experimental part:
as §1, §2

In assay [5] the target is T3, partial peptide of hIGF-I corresponding to 24th to 35th (human).
T3 construct: also called p24-35
T3 peptide: CYFNKPTGYGSSS
In words: competitive ELISA, methylated BSA-hIGF-I coated, peptide in solution. Background: ELISA stands for enzyme-linked immunosorbent assay.

In assay [6] the target is T4, partial peptide of hIGF-I corresponding to 41st to 56th (human).
T4 construct: also called p41-56
T4 peptide: CTGIVDEAAFRSADLRR
The assay is described as above.

In assay [7] the target is T5, partial peptide of hIGF-I corresponding to 41st to 56th having an inner Cys (human).
T5 construct: also called p41-56C; p41-56c
T5 peptide: CTGIVDECCFRSCDLRR
The description is as above.

Assay [8] deals with T6, partial peptide of hIGF-I corresponding to 1st to 18th (human).
T6 construct: also called p1-18
T6 peptide: GPETLSGAELVDALQFVC
The description is as above.

Assay [9] addresses T7, partial peptide of hIGF-I corresponding to 29th to 41st (human).
T7 construct: also called p29-41
T7 peptide: CTGYGSSSRRAPQT
Described as above.

Assay [10] addresses T8, partial peptide of hIGF-I corresponding to 36th to 47th (human).
T8 construct: also called p36-47
T8 peptide: RRAPQTGIVDEC
Described as above.

The target of assay [11] is T9, partial peptide of hIGF-I corresponding to 61st to 70th (human).
T9 construct: also called p61-70
T9 peptide: CAPLKPAKSA
Described as above.

Assay [12] has as its target T10, partial peptide of hIGF-I corresponding to 52nd to 70th (human).
T10 construct: also called p52-70
T10 peptide: CDLRRLEMYAAPLKPAKSA
The description is as above.

Assay [13] deals with T11, partial peptide of hIGF-I corresponding to 14th to 30th (human).
T11 construct: also called p14-30
T11 peptide: CLQFVAGDRGFYFNKPTG
The assay is described as above.

In assay [14] the target is T12, human insulin (human, UniProt P01308 25-54; P01308 90-110).
T12 construct: Bought
T12 sequence (P01308 25-54 limits assumed, chain 1 of 2): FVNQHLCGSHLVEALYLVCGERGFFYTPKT
T12 sequence (P01308 90-110 limits assumed, chain 2 of 2): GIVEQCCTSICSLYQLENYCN
In words: competitive ELISA, methylated BSA-hIGF-I or methylated BSA-hIGF-II coated, insulin in solution. An excerpt: Cross reactivity of the purified anti-hIGF rat antibody KM1468 with hIGF-II and human insulin was examined by the competitive ELISA shown below. As the antigens, hIGF-I (manufactured by Pepro Tech), hIGF-II (manufactured by Pepro Tech) and human insulin (manufactured Wako Pure Chemical Industries) were used.
The methylated BSA-hIGF-I antigen prepared in Reference Example 1(1) or a methylated BSA-hIGF-II antigen prepared in the same manner as in Reference Example 1(1) was immobilized on a plate in accordance with the method shown in Reference Example 1(4), at a concentration of 0.1 μg/ml in the case of the methylated BSA-hIGF-I antigen, or at a concentration of 1.0 μg/ml in the case of the methylated BSA-hIGF-II antigen, KM1468 diluted to 0.6 μg/ml was dispensed at 25 μl/well, and then each of 4-fold serial dilutions of hIGF-I, hIGF-II or human insulin prepared by starting from 20 μg/ml was dispensed at 25 μl/well, mixed and left at room temperature for 1 hour. After the reaction and subsequent washing with Tween-PBS, 1000-fold diluted peroxidase-labeled rabbit anti-rat Ig antibody (manufactured by DAKO) was added at 50 μl/well as the secondary antibody in the case of the anti-hIGF antibody KM1468. […] The results are represented by relative values (%) wherein OD415 when an antibody was added alone was defined as 100.

T1 sequence (P01344 25-91 limits assumed): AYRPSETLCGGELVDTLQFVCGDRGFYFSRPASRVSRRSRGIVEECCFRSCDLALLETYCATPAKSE

B1: anti-hIGF rat monoclonal antibody KM1468 (antibody, rat IgG2b, V domains shown)
VH: EVHLVESGGGLVQPGRSLKLSCAASGFTFSNYYMTWVRQAPTKGLEWVAYISSGGGSTYYRDSVKGRFTISRDNAKSTLYLQMDSLRSEDTATYYCTTEDYGYWFAYWGQGTLVTVSS
VL: EIVLTQSPTTMAASPGEKVTITCRASSSVSYMHWFQQKSGTSPKPWIYGTSKLASGVPDRFSGSGSGTSYSLTISSMEAEDAATYYCLQRSSYPPTFGAGTKLELK
notes: Rat IgG2b, kappa; Hybridoma FERM BP-7978; also called anti-hIGF antibody KM1468; anti-hIGF rat antibody KM1468
Take B1: the “KA relative to S1F2 (fold)” value in assay [1] is roughly 3.6 fold; in [2] it was roughly 18 fold. Further, the “KA relative to sm1.2 (fold)” value in assay [1] is roughly 120 fold; in assay [2] it was roughly 42 fold. Moreover, the Ka in [3] came to 8.63e+09 M⁻¹; in assay [4] it was 7.86e+09 M⁻¹. The binding result in assay [5], in [6], in assay [7], in assay [8], in assay [9] and in assay [10] was “no binding (tested: 3-fold serial dilutions from 50 µg/mL)” in each case. In addition, the binding result in assay [11] was “no binding (tested: 3-fold serial dilutions from 50 µg/mL)”; in [12], “no binding (tested: 3-fold serial dilutions from 50 µg/mL)”; in assay [13], “no binding (tested: 3-fold serial dilutions from 50 µg/mL)”; in assay [14], “no binding”.
